Results as given in the Human Domainome abundance scans (Beltran et al. 2025).
± gives the uncertainty stated by the source.

B1: Storkhead-box protein 2, residues 64 to 141; numbered along this chain, Q9P2F5 (parent)
chain: SPISQSQFIPLGEILCLAISAMNSARKPVTQEALMEHLTTCFPGVPTPSQEILRHTLNTLVRERKIYPTPDGYFIVTP

Variants of: B1
Test: abundance fitness (aPCA) (normalised: wild type 0, dead -1); higher = more abundant; growth selection in yeast, the domain comes from the species named
Conditions: Homo sapiens

Point of comparison: SPISQSQFIPLGEILCLAISAMNSARKPVTQEALMEHLKTCFPGVPTPSQEILRHTLNTLVRERKIYPTPDGYFIVTP [T39K], abundance fitness -0.15 ± 0.13. Against it:
- SPISQSQFIPLGEILCLAISAMNSARKPVTQEALMEHLTCCFPGVPTPSQEILRHTLNTLVRERKIYPTPDGYFIVTP [T40C] — within error, 0.002 ± 0.078
- SPISQSQFIPLGEILCLAISAMNSARKPVTQEALMEHLTPCFPGVPTPSQEILRHTLNTLVRERKIYPTPDGYFIVTP [T40P] — lower, -0.551 ± 0.06
- SPISQSQFIPLGEILCLAISAMNSARKPVTQEALMEHLTICFPGVPTPSQEILRHTLNTLVRERKIYPTPDGYFIVTP [T40I] — within error, -0.066 ± 0.073
- SPISQSQFIPLGEILCLAISAMNSARKPVTQEALMEHLTVCFPGVPTPSQEILRHTLNTLVRERKIYPTPDGYFIVTP [T40V] — within error, -0.013 ± 0.051
- SPISQSQFIPLGEILCLAISAMNSARKPVTQEALMEHLTGCFPGVPTPSQEILRHTLNTLVRERKIYPTPDGYFIVTP [T40G] — within error, -0.045 ± 0.042
- SPISQSQFIPLGEILCLAISAMNSARKPVTQEALMEHLTACFPGVPTPSQEILRHTLNTLVRERKIYPTPDGYFIVTP [T40A] — within error, -0.158 ± 0.057
- SPISQSQFIPLGEILCLAISAMNSARKPVTQEALMEHLTDCFPGVPTPSQEILRHTLNTLVRERKIYPTPDGYFIVTP [T40D] — within error, -0.069 ± 0.098
- SPISQSQFIPLGEILCLAISAMNSARKPVTQEALMEHLTFCFPGVPTPSQEILRHTLNTLVRERKIYPTPDGYFIVTP [T40F] — within error, -0.105 ± 0.094
- SPISQSQFIPLGEILCLAISAMNSARKPVTQEALMEHLTNCFPGVPTPSQEILRHTLNTLVRERKIYPTPDGYFIVTP [T40N] — within error, -0.133 ± 0.17
- SPISQSQFIPLGEILCLAISAMNSARKPVTQEALMEHLTMCFPGVPTPSQEILRHTLNTLVRERKIYPTPDGYFIVTP [T40M] — within error, -0.104 ± 0.13
- SPISQSQFIPLGEILCLAISAMNSARKPVTQEALMEHLTRCFPGVPTPSQEILRHTLNTLVRERKIYPTPDGYFIVTP [T40R] — within error, 0.016 ± 0.041
- SPISQSQFIPLGEILCLAISAMNSARKPVTQEALMEHLTECFPGVPTPSQEILRHTLNTLVRERKIYPTPDGYFIVTP [T40E] — within error, -0.048 ± 0.09
- SPISQSQFIPLGEILCLAISAMNSARKPVTQEALMEHLTQCFPGVPTPSQEILRHTLNTLVRERKIYPTPDGYFIVTP [T40Q] — within error, 0.021 ± 0.076
- SPISQSQFIPLGEILCLAISAMNSARKPVTQEALMEHLTKCFPGVPTPSQEILRHTLNTLVRERKIYPTPDGYFIVTP [T40K] — within error, -0.042 ± 0.063
- SPISQSQFIPLGEILCLAISAMNSARKPVTQEALMEHLTLCFPGVPTPSQEILRHTLNTLVRERKIYPTPDGYFIVTP [T40L] — within error, -0.077 ± 0.024
- SPISQSQFIPLGEILCLAISAMNSARKPVTQEALMEHLTSCFPGVPTPSQEILRHTLNTLVRERKIYPTPDGYFIVTP [T40S] — within error, -0.005 ± 0.047
- SPISQSQFIPLGEILCLAISAMNSARKPVTQEALMEHLWTCFPGVPTPSQEILRHTLNTLVRERKIYPTPDGYFIVTP [T39W] — within error, -0.003 ± 0.064
- SPISQSQFIPLGEILCLAISAMNSARKPVTQEALMEHLMTCFPGVPTPSQEILRHTLNTLVRERKIYPTPDGYFIVTP [T39M] — within error, -0.117 ± 0.084
- SPISQSQFIPLGEILCLAISAMNSARKPVTQEALMEHLGTCFPGVPTPSQEILRHTLNTLVRERKIYPTPDGYFIVTP [T39G] — within error, 0.019 ± 0.051
- SPISQSQFIPLGEILCLAISAMNSARKPVTQEALMEHLATCFPGVPTPSQEILRHTLNTLVRERKIYPTPDGYFIVTP [T39A] — within error, -0.025 ± 0.053
- SPISQSQFIPLGEILCLAISAMNSARKPVTQEALMEHLETCFPGVPTPSQEILRHTLNTLVRERKIYPTPDGYFIVTP [T39E] — within error, -0.137 ± 0.14
- SPISQSQFIPLGEILCLAISAMNSARKPVTQEALMEHLFTCFPGVPTPSQEILRHTLNTLVRERKIYPTPDGYFIVTP [T39F] — within error, -0.099 ± 0.078
- SPISQSQFIPLGEILCLAISAMNSARKPVTQEALMEHLYTCFPGVPTPSQEILRHTLNTLVRERKIYPTPDGYFIVTP [T39Y] — within error, 0.024 ± 0.11
- SPISQSQFIPLGEILCLAISAMNSARKPVTQEALMEHLSTCFPGVPTPSQEILRHTLNTLVRERKIYPTPDGYFIVTP [T39S] — within error, -0.043 ± 0.044
- SPISQSQFIPLGEILCLAISAMNSARKPVTQEALMEHLLTCFPGVPTPSQEILRHTLNTLVRERKIYPTPDGYFIVTP [T39L] — within error, -0.095 ± 0.04
- SPISQSQFIPLGEILCLAISAMNSARKPVTQEALMEHLRTCFPGVPTPSQEILRHTLNTLVRERKIYPTPDGYFIVTP [T39R] — within error, 0.016 ± 0.042
- SPISQSQFIPLGEILCLAISAMNSARKPVTQEALMEHLVTCFPGVPTPSQEILRHTLNTLVRERKIYPTPDGYFIVTP [T39V] — higher, 0.098 ± 0.057
- SPISQSQFIPLGEILCLAISAMNSARKPVTQEALMEHLITCFPGVPTPSQEILRHTLNTLVRERKIYPTPDGYFIVTP [T39I] — within error, 0.04 ± 0.11
- SPISQSQFIPLGEILCLAISAMNSARKPVTQEALMEHLPTCFPGVPTPSQEILRHTLNTLVRERKIYPTPDGYFIVTP [T39P] — within error, -0.076 ± 0.05
- SPISQSQFIPLGEILCLAISAMNSARKPVTQEALMEHLCTCFPGVPTPSQEILRHTLNTLVRERKIYPTPDGYFIVTP [T39C] — within error, -0.038 ± 0.058
- SPISQSQFIPLGEILCLAISAMNSARKPVTQEALMEHLDTCFPGVPTPSQEILRHTLNTLVRERKIYPTPDGYFIVTP [T39D] — within error, 0.09 ± 0.11
- SPISQSQFIPLGEILCLAISAMNSARKPVTQEALMEHLHTCFPGVPTPSQEILRHTLNTLVRERKIYPTPDGYFIVTP [T39H] — within error, -0.044 ± 0.13
- SPISQSQFIPLGEILCLAISAMNSARKPVTQEALMESLTTCFPGVPTPSQEILRHTLNTLVRERKIYPTPDGYFIVTP [H37S] — within error, -0.23 ± 0.045
- SPISQSQFIPLGEILCLAISAMNSARKPVTQEALMEFLTTCFPGVPTPSQEILRHTLNTLVRERKIYPTPDGYFIVTP [H37F] — within error, -0.285 ± 0.11
